Assay results taken from US7897732B2, “Antibodies to heparin-binding growth factor (HBGF) polypeptides” (Childrens Hospital Research Foundation, priority 1997, dated 2011).

B1: HBGF-0.8-P2: 10-kDa heparin-binding growth factor; truncated porcine CTGF starting at residue 248 (SEQ ID NO: 2 N-terminus) (protein)
chain: ENIKKGKKCIRTPKISKPVKFELSGCTSVKTYRAKFCGVCTDGRCCTPHRTTTLPVEFKCPDGEVMKKSMMFIKTCACHYNCPGDNDIFESLYYRKMYGDMA
B2: HBGF-0.8-P1: 10-kDa heparin-binding growth factor; N-terminally truncated porcine CTGF starting at residue 247 (SEQ ID NO: 1 N-terminus) (protein)
chain: EENIKKGKKCIRTPKISKPVKFELSGCTSVKTYRAKFCGVCTDGRCCTPHRTTTLPVEFKCPDGEVMKKSMMFIKTCACHYNCPGDNDIFESLYYRKMYGDMA

How the values were obtained:
Balb/c 3T3 fibroblasts = experiment: DNA synthesis ([3H]thymidine incorporation) assay in confluent quiescent Balb/c 3T3 cells; format: cell-based
Procedure: To assess the relative mitogenic capability of HBGFs with IGF-1, EGF, bFGF, and PDGF-AB, DNA synthesis assays on 3T3 cells were performed (Table 4). Biologically active fractions containing the 0.3-0.6 M NaCl eluate from the Bio-Rex column were pooled, diluted 3-fold with 20 mM Tris-HCL (pH 7.4) containing 0.1% CHAPS, passed through a 0.45-μm membrane filter, placed in a siliconized polypropylene vessel, and applied with a peristaltic pump to an EconoPac heparin column (0.7×3.6 cm; Bio-Rad) at 2 ml/min. The heparin column was then washed with 50 ml of 20 mM Tris-HCl buffer, 0.2 M NaCl, 0.1% CHAPS and developed at 1 ml/min with a 40 ml gradient of 0.1-2.0 M NaCl in 20 mM Tris-HCl, 0.1% CHAPS (pH 7.4) using a fast protein liquid chromatography (FPLC) system (Pharmacia Biotech Inc.). Fractions (1 ml) were collected into siliconized tubes during NaCl gradient elution and tested for 3T3 cell mitogenic activity. Column fractions were tested for their ability to stimulate DNA synthesis as measured by [^3H]thymidine incorporation into the DNA of confluent quiescent Balb/c 3T3 cells grown in 200 μl of Dulbecco's modified Eagle's medium, 10% bovine calf serum in 96-well culture plates as described (Kim, G. Y., et al., Biol. Reprod. 52, 561-571 (1995)). Dose-response curves to purified growth factors from ULF were established by assaying each dose in triplicate, with data computed as mean±S.D. Statistical significance of the effects of 1-100 μg/ml porcine heparin (Sigma) on growth factor activity was determined by Students' t test.

[1] = Heparin affinity chromatography (NaCl required for elution); format: binding
Procedure: Fractions that contained HBGF activity (fractions 16-19 collected after the cation exchange chromatography and heparin affinity chromatography) were pooled, diluted, and subjected to a second cycle of heparin affinity FPLC using a TSK heparin 5PW column. To perform the second heparin affinity purification step, biologically active HBGF fractions containing the 0.8 M NaCl eluate from the EconoPac heparin purification step were pooled, diluted 3-fold with 20 mM Tris-HCl (pH 7.4), and clarified by passage through a 0.2-μm filter. The sample was applied at 2 ml/min to a TSK heparin 5PW column (0.8×7.5 cm; TosoHaas, Philadelphia, Pa.), that was washed and eluted as described above, except that CHAPS was omitted from the buffers and fractions of 0.5 ml were collected. […] HBGF polypeptide was again eluted by 0.8 M NaCl (fractions 31-36), but was resolved as two peaks of mitogenic activity which had distinct heparin binding properties. The activity peaks were termed HGBF-0.8-P1 for fractions 31-34 and HGBF-0.8-P2 for fractions 35 and 36. To assess the relative mitogenic capability of HBGFs with IGF-1, EGF, bFGF, and PDGF-AB, DNA synthesis assays on 3T3 cells were performed (Table 4). Biologically active fractions containing the 0.3-0.6 M NaCl eluate from the Bio-Rex column were pooled, diluted 3-fold with 20 mM Tris-HCL (pH 7.4) containing 0.1% CHAPS, passed through a 0.45-μm membrane filter, placed in a siliconized polypropylene vessel, and applied with a peristaltic pump to an EconoPac heparin column (0.7×3.6 cm; Bio-Rad) at 2 ml/min. The heparin column was then washed with 50 ml of 20 mM Tris-HCl buffer, 0.2 M NaCl, 0.1% CHAPS and developed at 1 ml/min with a 40 ml gradient of 0.1-2.0 M NaCl in 20 mM Tris-HCl, 0.1% CHAPS (pH 7.4) using a fast protein liquid chromatography (FPLC) system (Pharmacia Biotech Inc.). Fractions (1 ml) were collected into siliconized tubes during NaCl gradient elution and tested for 3T3 cell mitogenic activity.

[2] = preparation after C8HPLC (step 1), bioactivity diminished due to acid exposure

Molecule | ED50: concentration of HBGF-0.8 preparation required to give 50% maximal DNA synthesis (Balb/c 3T3 fibroblasts; [2]) [µg/mL] | ED50: concentration of HBGF-0.8 preparation required to give 50% maximal DNA synthesis (Balb/c 3T3 fibroblasts; preparation after TSK-Hep step) [µg/mL] | NaCl required for elution from a heparin affinity column [1] [M] | ED50: concentration of HBGF-0.8 preparation required to give 50% maximal DNA synthesis (Balb/c 3T3 fibroblasts; preparation after C8HPLC, step 2, bioactivity diminished due to acid exposure) [µg/mL] | Heparin affinity as compared with HBGF-0.8-P2 ([1]; TSK heparin 5PW column)
B1 | 0.25 | 0.417 | 0.8 |  | 
B2 | 0.25 | 2.23 | 0.8 | 0.025 | lower heparin affinity
